Test results from paper PMC13216289 (NPJ Vaccines, 2026).
Substitutions are numbered along the chain they refer to.

What was measured:
Conditions in all cases: both partners purified
[1] = target: VP1 C-terminal peptide, residues 199-213 of O/UKG/34/2001 (Foot-and-mouth disease virus …, UniProt Q80B19); test: ELISA
[2] = target: VP1 C-terminal peptide, residues 196-210 of O/UKG/34/2001 (Foot-and-mouth disease virus …, UniProt Q80B19); test: ELISA
[3] = target: VP1 subunit of reduced O1M VLPs (Foot-and-mouth disease virus …, UniProt Q6PMW3); test: far-Western, overlay or dot blot

B1: Ab17 (antibody, V domains shown)
VH: QVQLRESGPSSLKPSQTLSLTCAVSGFSLSTYAVGWVRQAPGKALEWVGDITSSGDTFYNPALKSRFSITKDNSKNQVSLSVGSVTPEDTATFYCTRLTCGDDCSTAWHNFDAWGQGLLVTVSS
VL: SYELTQPTSVSVALGQTAKITCSGDLLDVQYTQWYQQKPGQGPVRVIYKDSERPSGISDRFSGSSSGKTATLIISGAQTEDEADYYCQSTDSSQYGIFGRGTTLTVL
- binding result [1]: binds
- binding result [2]: binds
- binding result [3]: binds

B2: Ab49 (antibody, V domains shown)
VH: QVQLRESGPSLVKPSQTLSLTCTVSGFSLTNYAVGWVRQAPGKAIQSLSIISTTGDTYYNPALKSRLSITKDNSKSQVSLSVSSVAPEDTATYYCVKFCGNADSAGHGWGCDYGDNENWGQGLLVTVSS
VL: B1 VL with V29E, I73T, T90F, D91Y, Q94T, Y95D, G96P, I97V, R100S
- binding result [1]: binds
- binding result [2]: binds
- binding result [3]: binds

B3: Ab34 (antibody, V domains shown)
VH: QVQLRESGPSLVKPSQTLSLTCTVSGFSLTDVHVGWVRQTPGKALEWVGVICNRGAIGYNPALESRLSITEDNSKSQVSLSLSSVTTADTATYYCASSCRTEGDVGGDCDSDHFFCAWGQGLLVTVSS
VL: SYELTQPTSVSVALGQTAKITCSGDLLDRQYAQWYQQKPGQGPVRVIYKDSERPSGISDRFSGSSSGKTATLTVSGAQTEDEADYYCHSADSSHYPVFGSGSTLTVL
- binding result [3]: binds
